# Measured values reported in article PMC2563037.
# Non-standard residues stand in square brackets, D forms with d. No end group written: not given here. Abu = CC[C@H](N)C(=O)O
# Molecular target: H-2K^b (MHC class I heavy chain with its light chain, the 'heterodimer' of the crystal structures) (mouse | not stated)
# Assay: circular dichroism thermal melt; far-UV CD of the H-2K^b/peptide-Aba complexes, thermostatted cuvette, 30 to 90°C
binder,measurement,value
R[Abu]YIFANI,Tm of the complex,64 °C
R[Abu]QIFANI,Tm of the complex,54 °C
